# Non-standard residues stand in square brackets, D forms with d. *: point of attachment. 4‑guanidinomethylbenzoyl = N=C(N)NCc1ccc(C(=O)*)cc1; βHOAla = beta-homoalanine (β-HOAla), D- or L-form; 4Pal = N[C@@H](Cc1ccncc1)C(=O)O; d(pGlu) = O=C1CC[C@H](C(=O)O)N1; Cha = N[C@@H](CC1CCCCC1)C(=O)O; Isonicotinoyl = O=C(c1ccncc1)*; Aipe = 3-aminobutanoic acid; dIva = CC[C@@](C)(N)C(=O)O; Iva = CC[C@](C)(N)C(=O)O; Nle = CCCC[C@H](N)C(=O)O; Aib = CC(C)(N)C(=O)O
# B1: Ac-[D-Pro24, Pya(4)26, Cha27,36, Aib28,31, Lys30]-PYY(24-36) (peptide)
# peptide: Ac-[dP]R[4Pal][Cha][Aib]NK[Aib]TRQR[Cha]-NH2
# SMILES: CC(=O)N1CCC[C@@H]1C(=O)N[C@@H](CCCNC(=N)N)C(=O)N[C@@H](Cc1ccncc1)C(=O)N[C@@H](CC1CCCCC1)C(=O)NC(C)(C)C(=O)N[C@@H](CC(N)=O)C(=O)N[C@@H](CCCCN)C(=O)NC(C)(C)C(=O)N[C@H](C(=O)N[C@@H](CCCNC(=N)N)C(=O)N[C@@H](CCC(N)=O)C(=O)N[C@@H](CCCNC(=N)N)C(=O)N[C@@H](CC1CCCCC1)C(N)=O)[C@@H](C)O
# B2: 4-Guanidinomethylbenzoyl-[Iva25, Cha27,36, Aib28,31, Lys30]-PYY(25-36) (peptide)
# peptide: {4‑guanidinomethylbenzoyl}-[Iva]H[Cha][Aib]NK[Aib]TRQR[Cha]-NH2
# SMILES: CC[C@](C)(NC(=O)c1ccc(CNC(=N)N)cc1)C(=O)N[C@@H](Cc1c[nH]cn1)C(=O)N[C@@H](CC1CCCCC1)C(=O)NC(C)(C)C(=O)N[C@@H](CC(N)=O)C(=O)N[C@@H](CCCCN)C(=O)NC(C)(C)C(=O)N[C@H](C(=O)N[C@@H](CCCNC(=N)N)C(=O)N[C@@H](CCC(N)=O)C(=O)N[C@@H](CCCNC(=N)N)C(=O)N[C@@H](CC1CCCCC1)C(N)=O)[C@@H](C)O
# B3: Ac-[Iva24, Pya(4)26, Cha27,36, Aib28,31, Lys30]-PYY(23-36) (peptide)
# peptide: Ac-S[Iva]R[4Pal][Cha][Aib]NK[Aib]TRQR[Cha]-NH2
# SMILES: CC[C@](C)(NC(=O)[C@H](CO)NC(C)=O)C(=O)N[C@@H](CCCNC(=N)N)C(=O)N[C@@H](Cc1ccncc1)C(=O)N[C@@H](CC1CCCCC1)C(=O)NC(C)(C)C(=O)N[C@@H](CC(N)=O)C(=O)N[C@@H](CCCCN)C(=O)NC(C)(C)C(=O)N[C@H](C(=O)N[C@@H](CCCNC(=N)N)C(=O)N[C@@H](CCC(N)=O)C(=O)N[C@@H](CCCNC(=N)N)C(=O)N[C@@H](CC1CCCCC1)C(N)=O)[C@@H](C)O
# B4: Ac-[Aib24,28,31, Pya(4)26, Cha27,36, Lys30]-PYY(23-36) (peptide)
# peptide: Ac-S[Aib]R[4Pal][Cha][Aib]NK[Aib]TRQR[Cha]-NH2
# SMILES: CC(=O)N[C@@H](CO)C(=O)NC(C)(C)C(=O)N[C@@H](CCCNC(=N)N)C(=O)N[C@@H](Cc1ccncc1)C(=O)N[C@@H](CC1CCCCC1)C(=O)NC(C)(C)C(=O)N[C@@H](CC(N)=O)C(=O)N[C@@H](CCCCN)C(=O)NC(C)(C)C(=O)N[C@H](C(=O)N[C@@H](CCCNC(=N)N)C(=O)N[C@@H](CCC(N)=O)C(=O)N[C@@H](CCCNC(=N)N)C(=O)N[C@@H](CC1CCCCC1)C(N)=O)[C@@H](C)O
# B5: Ac-[D-Iva24, Pya(4)26, Cha27,36, Aib28,31, Lys30]-PYY(23-36) (peptide)
# peptide: Ac-S[dIva]R[4Pal][Cha][Aib]NK[Aib]TRQR[Cha]-NH2
# SMILES: CC[C@@](C)(NC(=O)[C@H](CO)NC(C)=O)C(=O)N[C@@H](CCCNC(=N)N)C(=O)N[C@@H](Cc1ccncc1)C(=O)N[C@@H](CC1CCCCC1)C(=O)NC(C)(C)C(=O)N[C@@H](CC(N)=O)C(=O)N[C@@H](CCCCN)C(=O)NC(C)(C)C(=O)N[C@H](C(=O)N[C@@H](CCCNC(=N)N)C(=O)N[C@@H](CCC(N)=O)C(=O)N[C@@H](CCCNC(=N)N)C(=O)N[C@@H](CC1CCCCC1)C(N)=O)[C@@H](C)O
# B6: 4-Pyridinecarbonyl-[Glu23, D-Pro24, Nle25, Pya(4)26, Cha27,36, Aib28,31, Lys30]-PYY(23-36) (peptide)
# peptide: Isonicotinoyl-E[dP][Nle][4Pal][Cha][Aib]NK[Aib]TRQR[Cha]-NH2
# SMILES: CCCC[C@H](NC(=O)[C@H]1CCCN1C(=O)[C@H](CCC(=O)O)NC(=O)c1ccncc1)C(=O)N[C@@H](Cc1ccncc1)C(=O)N[C@@H](CC1CCCCC1)C(=O)NC(C)(C)C(=O)N[C@@H](CC(N)=O)C(=O)N[C@@H](CCCCN)C(=O)NC(C)(C)C(=O)N[C@H](C(=O)N[C@@H](CCCNC(=N)N)C(=O)N[C@@H](CCC(N)=O)C(=O)N[C@@H](CCCNC(=N)N)C(=O)N[C@@H](CC1CCCCC1)C(N)=O)[C@@H](C)O
# B7: Ac-[D-Pro24, Aib25,28,31, Cha27,36, Lys30]-PYY(23-36) (peptide)
# peptide: Ac-S[dP][Aib]H[Cha][Aib]NK[Aib]TRQR[Cha]-NH2
# SMILES: CC(=O)N[C@@H](CO)C(=O)N1CCC[C@@H]1C(=O)NC(C)(C)C(=O)N[C@@H](Cc1c[nH]cn1)C(=O)N[C@@H](CC1CCCCC1)C(=O)NC(C)(C)C(=O)N[C@@H](CC(N)=O)C(=O)N[C@@H](CCCCN)C(=O)NC(C)(C)C(=O)N[C@H](C(=O)N[C@@H](CCCNC(=N)N)C(=O)N[C@@H](CCC(N)=O)C(=O)N[C@@H](CCCNC(=N)N)C(=O)N[C@@H](CC1CCCCC1)C(N)=O)[C@@H](C)O
# B8: Ac-[D-Pro24, Iva25, Cha27,36, Aib28,31, Lys30]-PYY(23-36) (peptide)
# peptide: Ac-S[dP][Iva]H[Cha][Aib]NK[Aib]TRQR[Cha]-NH2
# SMILES: CC[C@](C)(NC(=O)[C@H]1CCCN1C(=O)[C@H](CO)NC(C)=O)C(=O)N[C@@H](Cc1c[nH]cn1)C(=O)N[C@@H](CC1CCCCC1)C(=O)NC(C)(C)C(=O)N[C@@H](CC(N)=O)C(=O)N[C@@H](CCCCN)C(=O)NC(C)(C)C(=O)N[C@H](C(=O)N[C@@H](CCCNC(=N)N)C(=O)N[C@@H](CCC(N)=O)C(=O)N[C@@H](CCCNC(=N)N)C(=O)N[C@@H](CC1CCCCC1)C(N)=O)[C@@H](C)O
# B9: Ac-[D-Pro24, Pya(4)26, Cha27,36, Aib28,31, Arg30]-PYY(23-36) (peptide)
# peptide: Ac-S[dP]R[4Pal][Cha][Aib]NR[Aib]TRQR[Cha]-NH2
# SMILES: CC(=O)N[C@@H](CO)C(=O)N1CCC[C@@H]1C(=O)N[C@@H](CCCNC(=N)N)C(=O)N[C@@H](Cc1ccncc1)C(=O)N[C@@H](CC1CCCCC1)C(=O)NC(C)(C)C(=O)N[C@@H](CC(N)=O)C(=O)N[C@@H](CCCNC(=N)N)C(=O)NC(C)(C)C(=O)N[C@H](C(=O)N[C@@H](CCCNC(=N)N)C(=O)N[C@@H](CCC(N)=O)C(=O)N[C@@H](CCCNC(=N)N)C(=O)N[C@@H](CC1CCCCC1)C(N)=O)[C@@H](C)O
# B10: [D-pGlu24, Pya(4)26, Cha27,36, Aib28,31, Lys30]-PYY(24-36) (peptide)
# peptide: [d(pGlu)]R[4Pal][Cha][Aib]NK[Aib]TRQR[Cha]-NH2
# SMILES: C[C@@H](O)[C@H](NC(=O)C(C)(C)NC(=O)[C@H](CCCCN)NC(=O)[C@H](CC(N)=O)NC(=O)C(C)(C)NC(=O)[C@H](CC1CCCCC1)NC(=O)[C@H](Cc1ccncc1)NC(=O)[C@H](CCCNC(=N)N)NC(=O)[C@H]1CCC(=O)N1)C(=O)N[C@@H](CCCNC(=N)N)C(=O)N[C@@H](CCC(N)=O)C(=O)N[C@@H](CCCNC(=N)N)C(=O)N[C@@H](CC1CCCCC1)C(N)=O
# B11: Ac-[Lys22,30, D-Pro24, Pya(4)26, Cha27,36, Aib28,31]-PYY(22-36) (peptide)
# peptide: Ac-KS[dP]R[4Pal][Cha][Aib]NK[Aib]TRQR[Cha]-NH2
# SMILES: CC(=O)N[C@@H](CCCCN)C(=O)N[C@@H](CO)C(=O)N1CCC[C@@H]1C(=O)N[C@@H](CCCNC(=N)N)C(=O)N[C@@H](Cc1ccncc1)C(=O)N[C@@H](CC1CCCCC1)C(=O)NC(C)(C)C(=O)N[C@@H](CC(N)=O)C(=O)N[C@@H](CCCCN)C(=O)NC(C)(C)C(=O)N[C@H](C(=O)N[C@@H](CCCNC(=N)N)C(=O)N[C@@H](CCC(N)=O)C(=O)N[C@@H](CCCNC(=N)N)C(=O)N[C@@H](CC1CCCCC1)C(N)=O)[C@@H](C)O
# B12: Ac-[D-Pro24, Iva25, Pya(4)26, Cha27,36, Aib28,31, Lys30]-PYY(23-36) (peptide)
# peptide: Ac-S[dP][Iva][4Pal][Cha][Aib]NK[Aib]TRQR[Cha]-NH2
# SMILES: CC[C@](C)(NC(=O)[C@H]1CCCN1C(=O)[C@H](CO)NC(C)=O)C(=O)N[C@@H](Cc1ccncc1)C(=O)N[C@@H](CC1CCCCC1)C(=O)NC(C)(C)C(=O)N[C@@H](CC(N)=O)C(=O)N[C@@H](CCCCN)C(=O)NC(C)(C)C(=O)N[C@H](C(=O)N[C@@H](CCCNC(=N)N)C(=O)N[C@@H](CCC(N)=O)C(=O)N[C@@H](CCCNC(=N)N)C(=O)N[C@@H](CC1CCCCC1)C(N)=O)[C@@H](C)O
# B13: Ac-[D-Pro24, Aib25,28,31, Pya(4)26, Cha27,36, Lys30]-PYY(23-36) (peptide)
# peptide: Ac-S[dP][Aib][4Pal][Cha][Aib]NK[Aib]TRQR[Cha]-NH2
# SMILES: CC(=O)N[C@@H](CO)C(=O)N1CCC[C@@H]1C(=O)NC(C)(C)C(=O)N[C@@H](Cc1ccncc1)C(=O)N[C@@H](CC1CCCCC1)C(=O)NC(C)(C)C(=O)N[C@@H](CC(N)=O)C(=O)N[C@@H](CCCCN)C(=O)NC(C)(C)C(=O)N[C@H](C(=O)N[C@@H](CCCNC(=N)N)C(=O)N[C@@H](CCC(N)=O)C(=O)N[C@@H](CCCNC(=N)N)C(=O)N[C@@H](CC1CCCCC1)C(N)=O)[C@@H](C)O
# Molecular target: human Y2 receptor (human) (UniProt P49146)
# Sequence (P49146 whole entry): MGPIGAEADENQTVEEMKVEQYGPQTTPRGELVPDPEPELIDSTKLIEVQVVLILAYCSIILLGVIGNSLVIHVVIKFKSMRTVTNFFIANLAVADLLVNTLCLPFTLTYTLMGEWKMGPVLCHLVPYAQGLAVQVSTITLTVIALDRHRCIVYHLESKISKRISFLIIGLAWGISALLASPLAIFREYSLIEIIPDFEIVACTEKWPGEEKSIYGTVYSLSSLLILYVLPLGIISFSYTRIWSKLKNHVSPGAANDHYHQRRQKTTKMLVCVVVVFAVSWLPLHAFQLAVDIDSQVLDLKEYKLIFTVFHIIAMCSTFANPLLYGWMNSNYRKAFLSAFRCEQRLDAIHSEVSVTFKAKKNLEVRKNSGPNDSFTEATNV
# Assay: cell-based or functional assay
row,Binder,GBA EC50 Ratio ([35S]GTPγS binding) (EC50 compound/EC50 PYY(3-36))
1,B1,0.56
2,B2,2.8
3,B3,0.91
4,B4,1.1
5,B5,1.3
6,"Ac-S[βHOAla]R[4Pal][Cha][Aib]NK[Aib]TRQR[Cha]-NH2 (also: former peak isomer, β-HOAla configuration D or L not assigned) [Ac-[β-HOAla24, Pya(4)26, Cha27,36, Aib28,31, Lys30]-PYY(23-36) former peak]",2.8
7,B6,5.7
8,B7,11
9,B8,5.2
10,B9,1.8
11,B10,1.1
12,"Ac-S[βHOAla]R[4Pal][Cha][Aib]NK[Aib]TRQR[Cha]-NH2 (also: later peak isomer, β-HOAla configuration D or L not assigned) [Ac-[β-HOAla24, Pya(4)26, Cha27,36, Aib28,31, Lys30]-PYY(23-36) later peak]",1.9
13,B11,1
14,B12,2.9
15,"Ac-S[Aipe]R[4Pal][Cha][Aib]NK[Aib]TRQR[Cha]-NH2 [Ac-[Aipe24, Pya(4)26, Cha27,36, Aib28,31, Lys30]-PYY(23-36)]",2
16,B13,1.7

# Molecular target: human Y2 receptor (human) (UniProt P49146)
# Assay: RBA: displacement of [125I]-PYY from hY2R/CHO membranes
row,Binder,IC50 Ratio (IC50 compound/IC50 PYY(3-36))
1,B1,0.68
2,B2,6.3
3,B3,0.58
4,B4,0.81
5,B5,0.39
6,"Ac-S[βHOAla]R[4Pal][Cha][Aib]NK[Aib]TRQR[Cha]-NH2 (also: former peak isomer, β-HOAla configuration D or L not assigned) [Ac-[β-HOAla24, Pya(4)26, Cha27,36, Aib28,31, Lys30]-PYY(23-36) former peak]",2.4
7,B6,8.1
8,B7,24
9,B8,8.8
10,B9,1.1
11,B10,2
12,"Ac-S[βHOAla]R[4Pal][Cha][Aib]NK[Aib]TRQR[Cha]-NH2 (also: later peak isomer, β-HOAla configuration D or L not assigned) [Ac-[β-HOAla24, Pya(4)26, Cha27,36, Aib28,31, Lys30]-PYY(23-36) later peak]",0.85
13,B11,1.1
14,B12,2.9
15,"Ac-S[Aipe]R[4Pal][Cha][Aib]NK[Aib]TRQR[Cha]-NH2 [Ac-[Aipe24, Pya(4)26, Cha27,36, Aib28,31, Lys30]-PYY(23-36)]",1.3
16,B13,8.4
